{
  "source": "patent US7785631B2",
  "about": "“Solid dose delivery vehicle and methods of making same” (Quadrant Drug Delivery Limited, priority 1994, dated 2010)",
  "assay_type_in_all_cases": "physicochemical",
  "key": {"[1]": {"assay": "Alkaline phosphatase activity after drying and acetone exposure", "conditions": "dried with 50% trehalose versus dried without trehalose; with bovine serum albumin; FIG. 6B", "protocol": "(§1) A 0.1 mg/ml horseradish peroxidase solution or a 1 mg/ml alkaline phosphatase/4 mg/ml bovine serum albumin solution was dried in an FTS Systems freeze drier with or without 50% trehalose. The drier was used as a vacuum drier and the mixtures dried without freezing. Four times the volume of solvent was added and the solution was allowed to evaporate to dryness. The contents were redissolved in 5 milliliters of water, and enzyme activity was assessed, in serial dilution, by commercial ‘kit’ reagents."}, "[2]": {"assay": "Exposure of dried phycoerythrin powder to organic solvents, fluorescence", "conditions": "freeze-dried powder", "protocol": "A 400 μg/ml phycoerythrin solution was freeze-dried in a Labconco freeze-drier with or without 20% trehalose. The dried protein powder was exposed to a number of organic solvents for 72 hrs."}, "[3]": {"assay": "Storage of phycoerythrin dried in trehalose at 100° C.", "conditions": "stored at 100° C. for one month", "protocol": "A 400 μg/ml phycoerythrin solution was freeze-dried in the FTS drier with or without 20% trehalose."}, "[4]": {"assay": "Horseradish peroxidase activity after drying and acetone exposure", "conditions": "dried with 50% trehalose versus dried without trehalose; FIG. 6A", "protocol": "as §1"}},
  "data": [
    {"substance": "alkaline phosphatase", "values": [
      {"measurement": "resistance of enzyme activity to acetone", "setting": "[1]", "result": "more resistant to acetone"}
    ]},
    {"substance": "phycoerythrin", "values": [
      {"measurement": "fluorescence after solvent exposure", "setting": "[2]; acetone, 72 hrs", "result": "remained fluorescent"},
      {"measurement": "fluorescence after solvent exposure", "setting": "[2]; acetonitrile, 72 hrs", "result": "remained fluorescent"},
      {"measurement": "fluorescence after solvent exposure", "setting": "[2]; chloroform, 72 hrs", "result": "remained fluorescent"},
      {"measurement": "fluorescence after solvent exposure", "setting": "[2]; dimethylsulfoxide (powder solubilized)", "result": "remained fluorescent"},
      {"measurement": "fluorescence after solvent exposure", "setting": "[2]; methanol, 72 hrs", "result": "remained fluorescent"},
      {"measurement": "time remained fluorescent", "setting": "[2]; pyridine", "result": "24 to 48", "unit": "h"},
      {"measurement": "fluorescence after solvent exposure", "setting": "[2]; pyridine, by 72 hrs", "result": "lost fluorescence"},
      {"measurement": "loss of functional activity on storage", "setting": "[3]", "result": "no detectable loss of functional activity"}
    ]},
    {"substance": "horseradish peroxidase", "values": [
      {"measurement": "resistance of enzyme activity to acetone", "setting": "[4]", "result": "more resistant to acetone"}
    ]}
  ]
}
